Test system: G. orontii MGH1
Assay: Spray-induced gene silencing (SIGS), G. orontii spore production on A. thaliana (whole plant and detached leaf assays)
Assay type: in vivo, Golovinomyces orontii
Settings: topical dsRNA against G. orontii target (Gor Seq ID); detached leaf assay; n>=3

Molecule | G. orontii Spore Production on Arabidopsis, Detached Leaf Assay, % reduction [%]
15 (nucleic acid, listed as Golovinomyces orontii, listed as DNA) CCTTTTGATTACTCCGCCCAACTTTTTTTTTTTAGGTTTTCAGTACTTCACCCTAGGAAGCTCCTCAATCATCATTTCTGAAAAGATGTCATCGTCTCTAGACCAACTTAAATCCACTGGAACTACTATTGTCTGTGATTCAGGTGATTTTGAATCAATTGGCAAATATAAACCTC | 38
70 (nucleic acid, listed as Golovinomyces orontii, listed as DNA) ATGTCAAGATCCCTTCACAATCTGAGCACCATTCAGAAGCTTTTTCCAATCTTGGGACCATCTCAAATTACTTCTAAGTTTTTGCTATGTTCACGTACATTATTTAGGCAGACTCGCTACAGTTCCCAATTTAATTTGGGCTATACCCGGGCCATTGAAAGGAAACCCTTAACTTTAAAGTCTATTGAATCTTTGTACAAAAGAGAGGAGCCCATCTTGGCACTCACTGCCCACGACTTTCCCAGTGGATATATTGCTGATGAAGCTGAGATTGAAATCGTACTTGTGGGAGACAGCCTGGCCATGGTAGCAATGGGGTTAGAAGATACAAGTGAGATTCTACTTGAAGAGATGCTACTCCATTGTCGCTCTGTTTCTCGAGCTGTGAAGACTGCTTTTACGGTAGGGGATCTTCCTATGGGATCCTATGAAGTATCCCCAGAACAGGCTCTAATTTCTGCTATTCGGATGATTAAGGAAGGTAGAGTAAAAGCTATTAAATTAGAAGGAGGCGCAGAAATGGGCCCAACCATAAAGAAAATAGTTACTGCCGGTATTCCGGTTCTCGGGCATATAGGGTTAACTCCGCAACGACAAAATTCTTTGGGCGGCTTCCGAGTACAAGGAAAGACCTCCAAGAGTGCACTCAAGATTCTTGAGGATGCATTAGCCATACAGGAAGCAGGCTGTTTTGCTGTTGTGATTGAGGCTATACCCGCAGAGGTAGCTACCATAATTACAAAGGAACTTTCAATCCCAACTATCGGTATTGGCGCTGGTAATGGCTGTTCAGGCCAAGTACTAGTTCAGGTTGATATGACTGGAAATTTTCCACCCGACCGTTCGATACCAAAATTTGTCAAAAAGTATTGTGACATTTGGAATGAGAGCTTGATGGGGATACGATCATATCGAGAAGAAACTAAGTGTAGGAAGTTTCCCGCACACGAACACACTTACTCAATCCCTAAAAATGAACTTGCTGAGTTCGAGAGAATACTAGCTTCTAAAGAACACTAG | 46
32 (nucleic acid, listed as Golovinomyces orontii, listed as DNA) GGTTCATCACCTCTAAATTTGTGAAGAGGTTTCTAAAAGATTCATCTCATCTCATAGCCAGAATTTAGACGCTGTATAAACGATGTTTGGGTCAGGATGTCCGATCAGAATGTATCCAAGAGTCAAGCGTAAATTCTGCAGGCTAGATGTATTTCGTCCCATCATGAATCGTAGATACAAAAGCGGACCTTTTGGCTATACGATGGCACAGGCGCTCGTTTACATGAAGCATGGTGAACCAGACGATGTACTCTCTCTTCATCGTCACTCCATTACACCTACACTTCCACCAGATTCTATTTTCTTACGGACACTTGCAAGCCCAATCAATCCAGCCGATATCAACCAAATTCAAGGTGTCTATCCGTTAAAACCAGAATTCTCGCCTCTACTTGGTACACCGCTTCCGAGCGCTGTAGGTGGGAATGAAGGCTGTTTTGAAGTTGTTTCACTCGGCTCTTCAGTGACTGATGTTAAGAAAGGCGACTGGGTGGTGGCAAATACCCCTGCACTCGGCACCTGGCGTACGCATTTGGTTGTACAGAAGTCTGATATTTTGCCCGTAGAGAAAAAAGGGTTAACCGCAACACAAGTTTGTACTGCATCGATCAATCCGCGAACAGCTTACTGCATGTTGAATAACATTGAGAAACTGCAGAAAGGTGATTGGTGGATTCAAAATGGAGCCAACAGTAGCGTGGGTCGTGCCGCAATTCAATTGGGAAAGTTATGGGGCTTTAAATCAATAAATGTCATTAGAGATCGACCAGACGTGGTATCTACCGAGTCCTTGCGGGCTGAATTGTTAGAATTAGGTGCTACACATGTTGTCACAGAAACAGAGCTGCTTGACAGAGGCTTTCGAGAGCTCGTGACGAAATGGACTAATGATAATAATAAGGGAATTAGATTAGGCTTGAACTGTGTTGGGGGTAAGTCTACAACGGCATTGGTAAAATTACTCGGGAAAAGAGGTCATTTAATCACATATGGTGGCATGTCTCGACAACCTCTACAACTTCCAACCAGCCGCCTCATATTTGATGATCTACGTTTTAGTGGCTTCTGGATTAGTCGCTGGTCCGTCGATAATCCTCGGGAAAGTCAGCACATGCTCAACAAAGTTCTGGACCTCATTCGTACAGGTTCTTTGAAGGAAACTCCTCATCACGAAATACTCTGGAATTGGGATACTAAGATTCAAGTACTCAATGAAGGAATTAAAGGTGCACTTCAGGGTTATCGAAACGCCAAAAATATTCTTGTTTACGGAGATACATAAATTTTGAGT | 50

Reference: US20260117244A1, “INHIBITORY RNA FOR THE CONTROL OF PHYTOPATHOGENS” (priority 2021, published 2026)
